Assay [1] addresses T1, monkey (cyno) GPRC5D, on 293T cells (monkey (cyno)).
T1 construct: whole, on cells; also called monkey GPRC5D
The assay can be described thus: FACS on 293T cells expressing monkey GPRC5D. An excerpt: (§1) According to the method described in Example 4, the binding between the culture supernatant of the hybridoma cells and monkey GPRC5D was detected, except that the human GPRC5D-expressing cells were replaced with 293T cells expressing monkey GPRC5D (Kyinno, catalog number KC-1586).

For assay [2], the target named is T1, monkey (cyno) GPRC5D, on 293T cells. The assay can be described thus: FACS on 293T cells expressing monkey (cyno) GPRC5D (run with 9D7(hz)). On the procedure:
(§2) 100 μl of FACS buffer was then added to each FACS tube for resuspension. 5 μl of PE-labeled, anti-murine Fc tagged secondary antibody (Biolegend, catalog number 409304) was added according to instructions, and incubated at 4° C. in the dark for 30 mins. Then 1 ml of FACS buffer was added, and centrifuged at 1200 rpm at room temperature for 5 mins. The supernatant was discarded followed by washing three times.
(§3) The experimental process was as described in Example 4. […] Control tube 1 (no antibody and secondary antibody, adding only cell suspension) and Control tube 2 (no antibody, adding only cell suspension and secondary antibody) were included.

Assay [3] shares this target. The assay can be described thus: FACS on 293T cells expressing monkey (cyno) GPRC5D (run with 24F5(hz)). The protocol: as §2, §3
For assay [4] the target is unchanged. The assay can be described thus: FACS on 293T cells expressing monkey (cyno) GPRC5D (run with 6E97(hz)). On the procedure: as §2, §3
For assay [5], the target named is T2, human GPRC5B, on 293T cells (human, UniProt Q9NZH0 29-403).
T2 construct: whole, on cells; also called 293T-GPRC5B
T2 sequence (Q9NZH0 29-403): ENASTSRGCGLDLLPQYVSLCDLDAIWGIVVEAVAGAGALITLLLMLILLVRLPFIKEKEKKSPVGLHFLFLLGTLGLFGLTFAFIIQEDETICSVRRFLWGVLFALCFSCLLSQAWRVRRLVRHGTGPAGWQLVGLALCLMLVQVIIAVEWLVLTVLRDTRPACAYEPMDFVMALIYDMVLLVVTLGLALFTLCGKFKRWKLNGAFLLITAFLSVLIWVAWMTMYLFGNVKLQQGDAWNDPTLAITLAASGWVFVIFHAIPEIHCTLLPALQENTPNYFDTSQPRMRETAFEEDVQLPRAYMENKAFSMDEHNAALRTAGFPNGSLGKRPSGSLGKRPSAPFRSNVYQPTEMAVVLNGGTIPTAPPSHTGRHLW
The assay can be described thus: FACS on 293T-GPRC5B cells, antibody at 2 µg/mL; control tubes 8.55 and 8.26. On the procedure:
as §2
(§4) The experimental process was as described in Example 4, cells expressing other members of G protein-coupled receptor class C group 5 as follows were used: 293T cells expressing human GPRC5A, 293T-GPRC5A (Kyinno, catalog number KC-1888), 293T cells expressing human GPRC5B, 293T-GPRC5B (Kyinno, catalog number KC-1854), and 293T cells expressing human GPRC5C, 293T-GPRC5C (Kyinno, catalog number KC-1889). […] Control tube 1 (no antibody and secondary antibody, adding only cell suspension) and Control tube 2 (no antibody, adding only cell suspension and secondary antibody) were included.

Assay [6] addresses T3, human GPRC5C, on 293T cells (human, UniProt Q9NQ84 24-441).
T3 construct: whole, on cells; also called 293T-GPRC5C
The assay can be described thus: FACS on 293T-GPRC5C cells, antibody at 2 µg/mL; control tubes 8.86 and 8.73. On the procedure:
as §2, §4

The target in assay [7] is T4, human GPRC5D (G protein-coupled receptor class C group 5 member D), on cells (human, UniProt Q9NZD1 1-345).
T4 construct: whole, on cells; also called hGPRC5D
T4 sequence (Q9NZD1 whole entry): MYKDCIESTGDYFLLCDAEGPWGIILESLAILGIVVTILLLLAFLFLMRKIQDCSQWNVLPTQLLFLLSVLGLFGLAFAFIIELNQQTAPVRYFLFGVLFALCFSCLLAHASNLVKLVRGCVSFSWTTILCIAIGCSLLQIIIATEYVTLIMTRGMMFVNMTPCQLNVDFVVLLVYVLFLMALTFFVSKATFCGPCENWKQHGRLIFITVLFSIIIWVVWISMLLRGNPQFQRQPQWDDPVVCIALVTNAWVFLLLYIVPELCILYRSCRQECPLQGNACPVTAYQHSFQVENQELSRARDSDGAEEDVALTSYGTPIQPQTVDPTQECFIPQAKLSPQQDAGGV
The assay can be described thus: FACS, hybridoma supernatant on MM1R cells. Background: A flow cytometer gives signals particle by particle.

Assay [8] has as its target T4, human GPRC5D (G protein-coupled …). The assay can be described thus: FACS, hybridoma supernatant on OPM2 cells.
For assay [9], the target named is T5, Nalm6 cells (NALM6, Kyinno, catalog number KC-0626).
T5 construct: Kept apart from human GPRC5D so that the low MFI values on this line are not laid to the GPRC5D pair
The assay can be described thus: FACS, hybridoma supernatant on Nalm6 cells.

In assay [10] the target is T4, human GPRC5D (G protein-coupled …). The assay can be described thus: FACS, hybridoma supernatant on NCI-H929 cells. The protocol:
as §2

For assay [11] the target is unchanged. The assay can be described thus: FACS, hybridoma supernatant on 293T cells expressing human GPRC5D. The protocol:
(§5) 293T cells expressing human GPRC5D as described above was prepared into a suspension at concentration of 1×10⁵ cells/ml in PBS containing 2% FBS.
(§6) 1 ml of FACS buffer was added to each FACS tube, centrifuged at 1200 rpm for 5 mins. The supernatant was discarded followed by washing three times. At the same time, control tube 1 (no supernatant of the culture and the secondary antibody mentioned below, adding only cell suspension) and control tube 2 (no supernatant of the culture, adding only cell suspension and the secondary antibody mentioned below) were included.
as §2

Assay [12] has the same target. Described as above. On the procedure: as §5, §6, §2
This is another data set of the same source.

Assay [13] shares this target. Described as above. On the procedure:
as §5, §6, §2
The source holds these as a separate data set.

In assay [14] the target is T1, monkey (cyno) GPRC5D, on 293T cells. The assay can be described thus: FACS, hybridoma supernatant on 293T cells expressing monkey GPRC5D.
Source text: as §1

The target is the same in assay [15]. The assay is described as above.
Source text: as §1
The source holds these as a separate data set.

For assay [16], the target named is T4, human GPRC5D (G protein-coupled …). The assay can be described thus: cell ELISA, hybridoma supernatant on fixed BXPC-3 cells expressing human GPRC5D. The protocol:
BXPC-3 cells expressing human GPRC5D (Kyinno, catalog number KC-1717) were prepared into a suspension at concentration of 1×10⁵ cells/ml in PBS containing 2% FBS. The suspension was added to a 96-well plate at 100 μl/well and cultured overnight at 37° C. The wells were cleared of their contents and washed three times with washing solution. 80 μl of 4% tissue fixative (Beyotime, catalog number P0099) was added to each well followed by fixing at room temperature for 15 min, washing twice with PBS and drying. 250 μl of blocking solution containing 2% BSA was added to each well followed by incubation at 37° C. for 1 hr and washing three times with PBS. 50-100 μl of the supernatant of the hybridoma cell culture was added to each well. A positive control (adding serum from fusion mice), a negative control (adding serum from normal mice) and a blank control (adding culture medium) were included. The wells were incubated at 37° C. for 1-2 hrs, washed, and dried. Then, the enzyme-labeled secondary antibody, HRP-labeled goat anti-mouse IgG (SIGMA, catalog number A9044-2 ml) was added at dilution of 1:10000 and 50-100 μl/well. The wells were incubated at 37° C. for 1-2 hrs, washed, and dried. 50-100 μl of freshly prepared developing solution TMB was added to each well and incubated at 37° C. for 10-30 mins.
2 mol/L H₂SO₄ was added to terminate the reaction, and the OD value was read on an enzyme-linked immunosorbent reader.
(In general: An ELISA detects its analyte on a solid surface through an enzyme-linked reagent.)

Assay [17] shares this target. The assay can be described thus: FACS, hybridoma supernatant on 293T cells expressing human GPRC5D. The protocol: as §5, §6, §2
This is another data set of the same source.

Residue numbers refer to the chain shown, from its start.

T3 sequence (Q9NQ84 24-441): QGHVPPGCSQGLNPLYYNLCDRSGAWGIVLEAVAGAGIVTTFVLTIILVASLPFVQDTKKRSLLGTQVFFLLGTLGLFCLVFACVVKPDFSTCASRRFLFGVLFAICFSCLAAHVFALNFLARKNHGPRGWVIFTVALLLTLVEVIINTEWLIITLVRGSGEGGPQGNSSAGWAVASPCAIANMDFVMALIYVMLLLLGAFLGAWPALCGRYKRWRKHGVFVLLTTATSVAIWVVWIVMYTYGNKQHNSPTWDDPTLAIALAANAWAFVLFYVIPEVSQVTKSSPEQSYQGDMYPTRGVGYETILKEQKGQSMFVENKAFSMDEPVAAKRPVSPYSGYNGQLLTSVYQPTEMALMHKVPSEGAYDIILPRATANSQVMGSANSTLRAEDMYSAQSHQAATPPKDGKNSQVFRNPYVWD

B1: GPRC5D×CD3 JNJ (anti-hGPRC5D×CD3 bispecific antibody built with the GPRC5D-targeting and CD3-targeting domains of Talquetamab, JNJ-64407564) (bispecific antibody, human IgG1, kappa, lambda)
heavy 1: QVQLVQSGAEVKKPGASVKVSCKASGYSFTGYTMNWVRQAPGQGLEWMGLINPYNSDTNYAQKLQGRVTMTTDTSTSTAYMELRSLRSDDTAVYYCARVALRVALDYWGQGTLVTVSSASTKGPSVFPLAPSSKSTSGGTAALGCLVKDYFPEPVTVSWNSGALTSGVHTFPAVLQSSGLYSLSSVVTVPSSSLGTQTYICNVNHKPSNTKVDKRVEPKSCDKTHTCPPCPAPPAAGPSVFLFPPKPKDTLMISRTPEVTCVVVDVSHEDPEVKFNWYVDGVEVHNAKTKPREEQYNSTYRVVSVLTVLHQDWLNGKEYKCKVSNKALAAPIEKTISKAKGQPREPQVYTLPPCREEMTKNQVSLWCLVKGFYPSDIAVEWESNGQPENNYKTTPPVLDSDGSFLLYSKLTVDKSRWQQGNVFSCSVMHEALHNHYTQKSLSLSPGK
heavy 2: QTVVTQEPSLTVSPGGTVTLTCRSSTGAVTTSNYANWVQQKPGQAPRGLIGGTNKRAPGTPARFSGSLLGGKAALTLSGVQPEDEAEYYCALWYSNLWVFGGGTKLTVLSSASTKGPSVFPLAPSSKSTSGGTAALGCLVEDYFPEPVTVSWNSGALTSGVHTFPAVLQSSGLYSLSSVVTVPSSSLGTQTYICNVNHKPSNTKVDDRVEPKSCDKTHTCPPCPAPPAAGPSVFLFPPKPKDTLMISRTPEVTCVVVDVSHEDPEVKFNWYVDGVEVHNAKTKPREEQYNSTYRVVSVLTVLHQDWLNGKEYKCKVSNKALAAPIEKTISKAKGQPREPQVCTLPPSREEMTKNQVSLSCAVKGFYPSDIAVEWESNGQPENNYKTTPPVLDSDGSFFLVSRLTVDKSRWQQGNVFSCSVMHEALHNHYTQKSLSLSPGK
light 1: DIQMTQSPSSLSASVGDRVTITCKASQNVATHVGWYQQKPGKAPKRLIYSASYRYSGVPSRFSGSGSGTEFTLTISNLQPEDFATYYCQQYNRYPYTFGQGTKLEIKRTVAAPSVFIFPPSDEQLKSGTASVVCLLNNFYPREAKVQWKVDNALQSGNSQESVTEQDSKDSTYSLSSTLTLSKADYEKHKVYACEVTHQGLSSPVTKSFNRGEC
light 2: EVQLVESGGGLVQPGGSLRLSCAASGFTFNTYAMNWVRQAPGKGLEWVARIRSKYNNYATYYAASVKGRFTISRDDSKNSLYLQMNSLKTEDTAVYYCARHGNFGNSYVSWFAYWGQGTLVTVSSGQPKAAPSVTLFPPSSEELQANKATLVCLISDFYPGAVTVAWKADSSPVKAGVETTTPSKQSNNKYAASSYLSLTPEQWKSHRSYSCQVTHEGSTVEKTVAPTECS
notes: used as the positive control antibody throughout; also called Positive control antibody
For B1, the concentration giving a half-maximal response (EC50) (in general, the midpoint of the concentration-response curve) in assay [1] came out at 13.1 µg/mL; in assay [2], 14 µg/mL; in assay [3], 4.39 µg/mL; in assay [4], 3.27 µg/mL. Moreover, the figures for the FACS result in assay [5] and in assay [6] were 8.44 and 8.72, respectively.

B2: murine antibody 9D7 (A1 antibody) (antibody, V domains shown)
VH: QVQLKESGPGLVKPSQSLSLTCTVTGYSITSDYAWNWIRQFPGNKLEWMGYISYSGSATYNPSLKSRISITRDTSKNQFFLQLNSMTTEDTATYYCARGGIAGRGRWGAMDYWGQGTSVTVSS
VL: DIVMTQAQKFMSTSVGDRVSVTCKASQNVGTNVAWYQNKPGQSPKALIYSASYRDSGVPDRFTGRGSGTDFTLTISNVQSEDLAEYFCQQYKSYPLTFGAGTKLELK
notes: Tested as hybridoma cell culture supernatant; also called murine anti-9D7
For the molecule B2, the EC50 in assay [7] came to 0.104 µg/mL; in assay [8], 0.177 µg/mL; in assay [10], 0.021 µg/mL; in [11] it was 0.185 µg/mL; in assay [12], 0.183 µg/mL; in [13], 0.279 µg/mL. Moreover, the EC50 in [14] stood at 0.376 µg/mL; in assay [15], 0.229 µg/mL. Besides, the MFI.Max in [7] worked out at 554 MFI; in assay [8] it was 705 MFI; in assay [9] it was 10.8 MFI; in assay [10] it was 506 MFI; in [12], 9380 MFI; in [14] it was 5440 MFI. The same molecule yielded an OD value in assay [16] of 0.541 OD.

B3: murine antibody 24F5 (A3 antibody) (antibody, V domains shown)
VH: QVQLKESGPELVKPGASVKISCKASGYTFPYYVMHWVKQKPGQGLEWIGYINPYNDGTKYNEKFKGKAALTSDKSSSTAYMDLSSLTSEDSAVYYCARGGVRRYFDYWGQGTTLTVSS
VL: DIQMTQTPSSLSASLGERVSLTCRASQDIGSNLNWLQQEPDGTIKRLIYATSSLDSGVPKRFSGSRSGSDYSLTISSLESEDFVDYYCLQYATFPYTFGGGTKLEIK
notes: Tested as hybridoma cell culture supernatant; also called murine anti-24F5
Turning to B3, the MFI.Max was determined as 991 MFI in [7]; 1190 MFI in [8]; 106 MFI in [9]; 1100 MFI in [10]; 9520 MFI in assay [12]; 6260 MFI in assay [14]. The EC50 is 5.67 µg/mL in assay [8], 0.117 µg/mL in assay [12] and 0.268 µg/mL in assay [14]. Moreover, the OD value in [16] was 1.54 OD.

B4: murine antibody 6E97 (A4 antibody) (antibody, V domains shown)
VH: B3 VH with M34I, D82E
VL: B3 VL with D1Q, Q3V, M4L, T7S, Y49S, Y87F
notes: Tested as hybridoma cell culture supernatant; also called murine anti-6E97
B4: the MFI.Max was determined as 931 MFI in assay [7]; 1080 MFI in assay [8]; 62.4 MFI in assay [9]; 900 MFI in [10]; 9610 MFI in [12]; 6290 MFI in assay [14]. Also, the concentration giving a half-maximal response (EC50) in [8] amounted to 0.291 µg/mL; in [12], 0.111 µg/mL; in assay [14] it was 0.243 µg/mL. The molecule also displayed an OD value in assay [16] of 1.55 OD.

B5: murine antibody 26D1 (A2 antibody) (antibody, V domains shown)
VH: QVQLKQSGAELAGPGASVKMSCKASGYTFTSYTIQWIKQRPGQGLEWIGYIIPSSGYTNYNQKFKDKATLTADKSSNTAYMQLSSLTSEDSAVYYCANNYGNWGFTYWGQGTLVTVSA
VL: DILMTQSQKFMSTSVRDRVSISCKASQNVGSAVTWYQQKPGQSPRLLIYSASNRYTGVPDRFTGSGSGTDFTLTISNVQSEDLADYFCQQYSNYPLTFGGGTKLEIK
notes: Tested as hybridoma cell culture supernatant; also called murine anti-26D1
With B5, the EC50 in [17] was found to be 0.788 µg/mL; in assay [11], 0.169 µg/mL; in assay [14], 12.3 µg/mL. In addition, in assay [16], the OD value was found to be 0.871 OD.

(Values after patent publication US20260085114A1 (KYINNO BIOTECHNOLOGY, published 2026).)
